From article PMC10792529 (Proteins, 2023)

Target: wild-type Ralstonia solanacearum Isocyanide Hydratase (Ralstonia solanacearum)
Assay: crystal structure

wild-type Ralstonia solanacearum Isocyanide Hydratase (enzyme)
stoichiometry N: 2
